The numbers were not newly measured in publication PMC2652250, which cites them from elsewhere.

The series has as its target cardiac troponin I 147-163 (Homo sapiens) (UniProt P19429). The series can be described thus: NMR.

Consider “cardiac troponin C (cNTnC) N-terminal domain (from UniProt P63316)”, for which the dissociation constant Kd is 154 µM.

The Kd is a measure of binding affinity in units of concentration.
